Literature values, collected in publication PMC8144458.

Tests used:
Assay in all cases: NMR
Details in all cases: HdeA without client protein
[1] = molecular target: Asp47 (UniProt position 68, KDKPEDAVLDV)
[2] = molecular target: Asp51 (UniProt position 72, EDAVLDVQGIA)
[3] = molecular target: Glu46 (UniProt position 67, NKDKPEDAVLD)

Substance: Acid stress chaperone HdeA (Escherichia coli)
- pKa [1]: 4.14
- pKa [2]: 3.83
- pKa [3]: 4.07
